Source: publication PMC7498313, “The Sac10b homolog from Sulfolobus islandicus is an RNA chaperone”
Where a chain is given by its changes, count along the chain named.

B1: 44-nt ssRNA (t) (ssRNA)
RNA: UGACUUCCGCGCGUGAGCUCGAUUCCACAUACCCUAAAUCGCUC
B2: 44-bp dsRNA (dsRNA)
RNA 1: B1 RNA
RNA 2: GAGCGAUUUAGGGUAUGUGGAAUCGAGCUCACGCGCGGAAGUCA

What was measured:
[1] = target: T1, Sis10b K17A (Sulfolobus islandicus REY15A, UniProt F0NHH1 1-97, K17A); test: EMSA; 55°C; no ssRNA preference over dsRNA; EMSA: 20 mM HEPES-NaOH pH 7.0, 1 mM DTT, 100 ug/ml BSA, 6% glycerol, 30 min at 25, 37 or 55°C; gel in 0.5x TBE at the same temperature; conditions: protein: recombinant; tags: none; chain copies: 2; label: 5' 32P; single strand
T1 sequence: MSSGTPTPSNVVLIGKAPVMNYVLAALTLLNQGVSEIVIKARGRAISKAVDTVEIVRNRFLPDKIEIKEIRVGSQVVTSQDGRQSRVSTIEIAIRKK

[2] = target: T2, Sis10b K16A (Sulfolobus islandicus REY15A, UniProt F0NHH1 1-97, K16A); test: EMSA; 37°C; slightly weaker than dsRNA; EMSA: 20 mM HEPES-NaOH pH 7.0, 1 mM DTT, 100 ug/ml BSA, 6% glycerol, 30 min at 25, 37 or 55°C; gel in 0.5x TBE at the same temperature; conditions: protein: recombinant; tags: none; chain copies: 2; label: 5' 32P; single strand
T2 sequence: T1 sequence with K16A, A17K

[3] = target: T3, Sis10b K17R (Sulfolobus islandicus REY15A, UniProt F0NHH1 1-97, K17R); test: as above; conditions: protein: recombinant; tags: none; chain copies: 2; label: 5' 32P; single strand
T3 sequence: T1 sequence with A17R

[4] = target: T2, Sis10b K16A; test: EMSA; 37°C; 1.1-1.7-fold better than ssRNA; EMSA: 20 mM HEPES-NaOH pH 7.0, 1 mM DTT, 100 ug/ml BSA, 6% glycerol, 30 min at 25, 37 or 55°C; gel in 0.5x TBE at the same temperature; conditions: protein: recombinant; tags: none; chain copies: 2; label: 5' 32P on top strand; blunt
[5] = target: T1, Sis10b K17A; test: as above; conditions: protein: recombinant; tags: none; chain copies: 2; label: 5' 32P on top strand; blunt
[6] = target: T3, Sis10b K17R; test: EMSA; 55°C; EMSA: 20 mM HEPES-NaOH pH 7.0, 1 mM DTT, 100 ug/ml BSA, 6% glycerol, 30 min at 25, 37 or 55°C; gel in 0.5x TBE at the same temperature; conditions: protein: recombinant; tags: none; chain copies: 2; label: 5' 32P on top strand; blunt
[7] = target: T4, Sis10b ΔN12 (Sulfolobus islandicus REY15A, UniProt F0NHH1 13-97, del1-12); test: as above; conditions: protein: recombinant; tags: none; chain copies: 2; label: 5' 32P on top strand; blunt
T4 sequence: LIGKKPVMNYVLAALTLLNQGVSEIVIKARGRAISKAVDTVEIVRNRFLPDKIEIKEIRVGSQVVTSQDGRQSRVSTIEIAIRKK

[8] = target: T5, Sis10b M20E/L24E/L27E/F60E (Sulfolobus islandicus REY15A, UniProt F0NHH1 1-97, M20E;L24E;L27E;F60E); test: as above; conditions: protein: recombinant; tags: none; chain copies: 2; label: 5' 32P on top strand; blunt
T5 sequence: T1 sequence with A17K, M20E, L24E, L27E, F60E

Binder | binding result [1] | binding result [2] | binding result [3] | binding result [4] | binding result [5] | Kd [6] [nM] | Kd [7] [nM] | Kd [8] [nM]
B1 | binds | binds | binds | – | – | – | – | –
B2 | – | – | – | binds | binds | ~28.2 | ~98.1 | ~82.3
